Measured values taken from patent US20130004981A1, “SYSTEM AND METHOD FOR SELECTING MOLECULE INTERACTING WITH PROTEIN PHOSPHATASE” (priority 2011, published 2013).

Tests used:
[1] = biological target: T1, PP2A subunits B56γ3, Aα and Cα (Homo sapiens, UniProt P30153+P67775); assay: BiFC-based FRET fluorescence of PP2A holoenzyme assembly (YFPN-B56γ3+YFPC-Aα+CFP-Cα) in transfected NIH3T3 cells; assay type: cell-based; settings: NIH3T3 cells co-transfected with YFPN-B56γ3+YFPC-Aα+CFP-Cα plus test plasmid; FIG. 3
T1 construct: HA; Flag; expressed in transfected cells; host or cells: NIH3T3 (mouse embryonic fibroblast cell line)
Description: (§1) In the following embodiments of the present invention, NIH3T3 cells (mouse embryonic fibroblast cell line) was used, which was cultured in Dulbecco's modified Eagle's medium (DMEM) supplemented with 10% bovine serum (BS), 1% Penicillin (10 U/μl)/Streptomycin (10 μg/μl), and 1% L-Glutamine (200 mM). All of the reagents were available from GIBCO.
(§2) NIH3T3 cells were seeded into proper dishes one day before transfection. For example, 7×10^4 cells were seeded in each well of a 24-well plate; 10^6 cells were seeded in a 6 cm dish; and 3×10^6 cells were seeded in a 10 cm dish. […]
(§3) After 24 hrs, cells were washed with PBS buffer three times and fixed by 4% paraformaldehyde/0.025% glutaraldehyde for 15 ruin. […] The cells were observed by fluorescence microscopy (Zeiss, Axio observer Z1). […]
(§4) In the present embodiment, the plasmids of the following experimental groups were transfected into NIH3T3 cells with the aforementioned transfection process, and the cover glasses used in the present embodiment were prepared with the same process described in Embodiment 1. The cells were observed by fluorescence microscopy (Zeiss, Axio observer Z1), and the fluorescence and fluorescent efficiency generated from cells were programmed by Zeiss AxioVision complied with Youvan's method. […]

[2] = biological target: T2, PP2A subunits Aα, Cα and B55β2 (Homo sapiens, UniProt P30153+P67775); assay: BiFC-based FRET fluorescence of PP2A holoenzyme assembly (YFPN-Aα+Cα-YFPC+B55β2-CFP) in transfected NIH3T3 cells; assay type: cell-based; settings: NIH3T3 cells co-transfected with YFPN-Aα+Cα-YFPC+B55β2-CFP plus test plasmid; FIG. 4
T2 construct: FLAG; HA (N); Flag; expressed in transfected cells; host or cells: NIH3T3 (mouse embryonic fibroblast cell line)
Description: as §1, §2, §3, §4

T2 sequence (P30153 whole entry): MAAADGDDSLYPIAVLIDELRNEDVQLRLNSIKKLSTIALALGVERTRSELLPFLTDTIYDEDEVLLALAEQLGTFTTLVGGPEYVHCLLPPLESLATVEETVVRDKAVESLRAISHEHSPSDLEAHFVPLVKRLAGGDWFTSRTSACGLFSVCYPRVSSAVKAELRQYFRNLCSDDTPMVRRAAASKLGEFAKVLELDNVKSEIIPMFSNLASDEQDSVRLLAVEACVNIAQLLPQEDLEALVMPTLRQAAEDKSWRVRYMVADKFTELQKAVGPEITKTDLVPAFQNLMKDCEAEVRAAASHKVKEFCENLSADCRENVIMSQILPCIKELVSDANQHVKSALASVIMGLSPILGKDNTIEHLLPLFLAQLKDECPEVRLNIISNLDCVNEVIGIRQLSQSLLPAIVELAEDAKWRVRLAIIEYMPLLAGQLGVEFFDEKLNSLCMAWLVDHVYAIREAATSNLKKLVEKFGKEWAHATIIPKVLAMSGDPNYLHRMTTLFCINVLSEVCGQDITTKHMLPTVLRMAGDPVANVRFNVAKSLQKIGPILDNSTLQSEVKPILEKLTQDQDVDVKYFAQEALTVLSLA
T2 sequence (P67775 whole entry): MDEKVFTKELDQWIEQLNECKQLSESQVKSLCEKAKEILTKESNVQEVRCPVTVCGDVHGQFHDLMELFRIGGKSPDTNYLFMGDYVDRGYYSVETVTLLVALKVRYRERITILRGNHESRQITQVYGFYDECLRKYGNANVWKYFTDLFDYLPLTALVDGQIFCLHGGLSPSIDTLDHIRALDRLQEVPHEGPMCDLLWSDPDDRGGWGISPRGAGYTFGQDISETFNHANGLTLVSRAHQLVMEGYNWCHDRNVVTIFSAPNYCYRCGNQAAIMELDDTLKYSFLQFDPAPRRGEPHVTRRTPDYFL
T1 sequence (P30153 whole entry): as the sequence (P30153 whole entry) above
T1 sequence (P67775 whole entry): as the sequence (P67775 whole entry) above

B1: ST: small T (SV40 small T antigen) expressed from pCMV5; may influence the association between the scaffold subunit and the regulatory subunit (protein, UniProt P03081 1-174, looked up)
Small t antigen: MDKVLNREESLQLMDLLGLERSAWGNIPLMRKAYLKKCKEFHPDKGGDEEKMKKMNTLYKKMEDGVKYAHQPDFGGFWDATEVFASSLNPGVDAMYCKQWPECAKKMSANCICLLCLLRMKHENRKLYRKDPLVWVDCYCFDCFRMWFGLDLCEGTLLLWCDIIGQTTYRDLKL
- fluorescence generated from cells (association between subunits A and B) [1]: did not generate any fluorescence
- fluorescence and efficiency generated from cells (association between subunits A and B) [2]: only generated weak fluorescence and efficiency
